# “And” between values parts separate entries of the source, which are not always exact repeats. Equal values may be shown once.
# B1: Thermotoga maritima EtfABCX holoenzyme (heterotetrameric protomer) (complex)
# chain 1: MNVVVCIKQVPDTTNVRIDRKTNNLVREGVPSIINPDDERALELASQLKEKFGATVYVITMGPPQAKEALKDAIAFGLDEAVHLSDRTFAGADTLATTYTLYWGIKKIEERIGKIDLILTGKQAVDGDTGQVGPGLATRFGYALGAYVVRIEEIDPEKKEMVIVRRLDQGFEKIRLKLPAVLTITDELNKPRYADLPNLIRAIRYEPIVWTHKDLGLDPKKCGFFGSPTRVVSTNIPPARKGGDIISKNEDPEVAAEKLIEALKKFEAVRLVEALKPVLEGEKDE
# chain 2: MSEKKIIFVLIEHHGGKAHPVSWELIGKARDLASKLENSEVWGVLLGEGLESVAKEAIQRGADKVLYVKNREFNTYVNYLYKKALVDMVRKYRPEIFLIGATLEGRELAGMVATELETGLTADCTGLDIIPDKKLLAMTRPTFGGNLMATIMCPDHRPQMATVRPGVMKELPPDPERTGEIIEEEYDLGTFDKLIEILETIPLQTQVNLEYAPVVVAGGKGVGGPEGFKKLKELADLLGGEVGASRAAVKAGWISPEHQVGQTGKTVRPVLYFACGISGAIQHVVGIKESEIIVAINIDEKAPIFDIADIGIVGDLHKVVPALTAKLRELLNKSGVKK
# chain 3: MKIEFDVVVVGAGPSGLSCAYVLAKNGLKVAVVEKGEYPGSKNVMGGVLYVHPLKEIMPDFLEKAANSKALERNVIEQNLWLLGNEGVIKIGHRNVEWKENPNAFTVLRANFDRWFAQEVEKAGALIIPKTKVEDFLRNEKGEIAGVVTSRPKGEIHSKAVVIAEGVNPILTMKAGLRKEDLKPHMVAVAVKEVISVPEDVVNRVFGVEGNDGATIELLGSWSEGMFGMGFLYANRSSVSLGCGVLLEDLRKKKIKPYQLLENLKNHPVISDMLGEYRNNTMEYLAHLIPEGGYYAMPKVYGDRVLVCGDAAMLVNSIHREGSNHAITSGRLAAETLLEAFEKGDFSEKILKNYYLRLKESFILKDLEKYKDLMPTMEKNHQFVEIYPDLANDALKRFLQVDGTPKWDVQKQIADMVLSRRSLIGISLDLLRFWRAVR
# chain 4: MRIEDKLYLNRYRTDEENPHLKIKDESICAEKCSDRPCVSCCPADVYEWTESGMEVKFEGCLECGTCRIVCPFGNIEWNYPRGNYGVLYKFG
# Biological target: the molecule itself
# Assay: SEC; purified recombinant EtfABCX analysed by size exclusion chromatography; peaks assigned by mass; EtfABCX protomers to superdimer and super-tetramer
protein,measurement,value
B1,stoichiometry N,2 and 4

# — paper PMC10734219, “Characterization of the Membrane-Associated Electron-Bifurcating Flavoenzyme EtfABCX from the Hyperthermophilic Bacterium Thermotoga maritima” (Biochemistry, 2023)
